40 sequences from the nanobody polyreactivity screen of Harvey et al. (2022) can be followed below.

The nature of this series: yeast display, Sf9 membrane polyspecificity reagent, FACS + sequencing; frameworks hold sequencing errors. Put shortly: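 Nanobodies came from a synthetic yeast display library in Saccharomyces cerevisiae BJ5465, induced with galactose for 36–48 hours and stained for 1 hour at 4 °C with 10% biotinylated, detergent-solubilized Sf9 membrane reagent. Cells were enriched on streptavidin microbeads and then FACS-sorted, with low and high (top ~1%) gates set on anti-HA fluorescence for expression and streptavidin fluorescence for reagent binding. Each polyreactivity label reflects the gate a clone came from. Genes were amplified by colony PCR, sequenced by MiSeq 2 × 250 and filtered by CDR length.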
Consider “QVQLVESGGGLVQAGGSLRLSCAASGRTFKYYAMGWYRQAPGKERELVAGISSTGRTNYADSVKGRFTISRDNAKNTVYLQMNSLKPEDTAVYYCNAERKSFGKFDYWGQGTQVTVSS”, for which the “polyreactivity (PSR sort gate)” value is “high polyreactivity”.

For “QVQLVESGGGLVQAGGSLRLSCAASGRTFKYYAMGWYRQAPGKERELVATINYSGGGTYYADSVKRRFTSSRDNAKNTVYLQMNSLKPEDTAVYYCAATRYSFGPRRVDYWGQGTQVTVSS”, the “polyreactivity (PSR sort gate)” value is reported as “high polyreactivity”.

Take “QVQLVESGGGLVQAGGSLRLSCAASGRTFKYYTMGWYRQAPGKERELVAAISGSGSRTYYADSVKGRFTISRDNAKNTVYLQMNSLKPEDTAVYYCAARRRISSGYSGPPWIYGYWGQGTQVTVSS”: the “polyreactivity (PSR sort gate)” value was “high polyreactivity”.

With “QVQLVESGGGLVQAGGSLRLSCAASGRTFKYYTMGWYRQAPGKERELVAGINGGGGSTYYADSVKGRFTISRDNAKNTVYLQMNSMKPEDTAVYYCAVDPFAYFSYWTYDYWGQGTQVTVSS”, the “polyreactivity (PSR sort gate)” value was “high polyreactivity”.

As to “QVQLVESGGGLVQAGGSLRLSCAASGRTFKYYTMGWYRQAPGKERELVATISSSATSTYYADSVKGRFTISRDNAKNTVYLQMNSLKPEDTAVYYCAVERDYGWPIYIRWHFDYWGQGTQVTVSS”, the “polyreactivity (PSR sort gate)” value is listed as “low polyreactivity”.

On to “QVQLVESGGGLVQAGGSLRLSCAASGRTFKYYTMGWYRQAPGKERELVAVIRGTGSTYYADSVKGRFTISRDNAKNTVYLQMNSLKPEDTAVYYCAVQVRRRYNYWGQGTQVTVSS”, for which the “polyreactivity (PSR sort gate)” value was “high polyreactivity”.

In the case of “QVQLVESGGGLVQAGGSLRLSCAASGRTFLANAMGWYRQAPGKERELVAAITWSGGRTNYADSVKGRFTISRDNAKNTVYLQMNSLKPEDTAVYYCAADIFYEQVVGGTDVGYHDFDYWGQGTQVTVSS”, the “polyreactivity (PSR sort gate)” value is given as “low polyreactivity”.

With “QVQLVESGGGLVQAGGSLRLSCAASGRTFLIYDMGWYRQAPGKVRELVAAIRDRGATTYYADSVKGRFTISRDNAKNTVYLHMNSLKPEDTSVYYCSARNGAYPALKEGDYWGQGTQVTVSS”, the “polyreactivity (PSR sort gate)” value is reported as “high polyreactivity”.

Consider “QVQLVESGGGLVQAGGSLRLSCAASGRTFLLYAMGWYRQAPGKERELVAAISIGGGSTRYADSVKGRFTISRDNAKNTVYLQMNSLKPEDTAVYYCAALGRRGGDYWGQGTEVTVSS”, for which the “polyreactivity (PSR sort gate)” value is “high polyreactivity”.

Turning to “QVQLVESGGGLVQAGGSLRLSCAASGRTFLLYAMGWYRQAPGKERELVAAISSGGSTYYADSVKGRFTISRDNAKNTVYLQMNSLKPEDTAVYYCNAVYQHLASEYDYWGQGTQVTVSS”, the “polyreactivity (PSR sort gate)” value is reported as “low polyreactivity”.

With “QVQLVESGGGLVQAGGSLRLSCAASGRTFLPYAMGWYRQAPGKERELVAAITSGGSTSYADSVKGRFTISRDNAKNTVYLQMNSLKPEDSAVYYCAKGYYRFRRFYYGGYYWGQGTQVTVSS”, the “polyreactivity (PSR sort gate)” value was “low polyreactivity”.

Consider “QVQLVESGGGLVQAGGSLRLSCAASGRTFLRYAMGWYRQAPGKERELVAAISSRGGTTHYADSVKGRFTISRDNAKNTVYLLMNSLKPEDTAVYYCAAKSFLPYLKFGYWGQGTQVTVSS”, for which the “polyreactivity (PSR sort gate)” value is reported as “high polyreactivity”.

Turning to “QVQLVESGGGLVQAGGSLRLSCAASGRTFLRYAMGWYRQAPGKERELVAAISVSGGNTYYADSVKGRFTISRDNAKNTVYLQMKSLKPEDTAVYYCNKARLAAVFSYPYGYWGQGTQVTVSS”, the “polyreactivity (PSR sort gate)” value is reported as “low polyreactivity”.

Turning to “QVQLVESGGGLVQAGGSLRLSCAASGRTFLRYTMGWYRQAPGKERELVASITRGGSTYYADSVKGRFTISRDNAKNTVYLQMNSLKPEDTAVYYCAVDVYGSHYYTGSLGKPDGYWGQGTQVTVSS”, the “polyreactivity (PSR sort gate)” value is “high polyreactivity”.

In the case of “QVQLVESGGGLVQAGGSLRLSCAASGRTFLSYAMGWYRPAPGKERELVAAIRWRTGSRTYYADSVKGRFTISRDNAKNKVYLQLNSLKPEDTAVYLCANTYWYPYGYWGQGTQVTLSS”, the “polyreactivity (PSR sort gate)” value is “low polyreactivity”.

As for “QVQLVESGGGLVQAGGSLRLSCAASGRTFLSYTMGWYRQAPGKERELVAAITTSGGSTNYADSVKGRFTISRDNAMNNVYLQMNSLKPEDTAVYYCADEWSVYFNDPRSDYWGQGTQVTVSS”, the “polyreactivity (PSR sort gate)” value is “high polyreactivity”.

Consider “QVQLVESGGGLVQAGGSLRLSCAASGRTFLVNAMGWSRQAPGKERELVAAISQRGGSTDYADSVKGRFTISRDNAKNTVYLQMNSLKPEDTAVYYCAVRWGYLYDYWGQGTQVTVSS”, for which the “polyreactivity (PSR sort gate)” value is listed as “low polyreactivity”.

Regarding “QVQLVESGGGLVQAGGSLRLSCAASGRTFLVYAMGWYRQAPGKERELVATIRASTGSTYADSVKGRFTISRDNAKNTVYLQMNSLKPEDTAVYYCAASIRTSPYNYDYWGQGTQVTVSS”, the “polyreactivity (PSR sort gate)” value is “high polyreactivity”.

Turning to “QVQLVESGGGLVQAGGSLRLSCAASGRTFLWNDMGWYRQAPGKERELVAAITGSDGTYADSVKGRFTISRDNAKNTVYLQMNSLKPEDTAVYYCAAETYGYFPWKYDYWGQGTQVTVSS”, the “polyreactivity (PSR sort gate)” value is listed as “low polyreactivity”.

As to “QVQLVESGGGLVQAGGSLRLSCAASGRTFLWYAMGWYRQAPGKERELVAAIRWRGTSTYYADSVKGRFTISRDNAKNTVYLQMNSLKPEDTAVYYCAAKVRSLYWFDYWGQGTQVTVSS”, the “polyreactivity (PSR sort gate)” value was “high polyreactivity”.

On to “QVQLVESGGGLVQAGGSLRLSCAASGRTFLWYAMGWYRQAPGKERELVAAITTAGSTYYADSVKGRFTISRDNAKNTVYLQMNSLKPEDTAVYYCNRLTYAYPPPVLGVGHDSWGQGTQVTVSS”, for which the “polyreactivity (PSR sort gate)” value is “low polyreactivity”.

Take “QVQLVESGGGLVQAGGSLRLSCAASGRTFLYNAMGWYIQAPGKERELVAAISWNGGRTYYADSVKGRFTISRDNAKNTVYLQMNSLKPEDTAVYYCAKVDQLYNSRYDYWGQGTQVTVSS”: the “polyreactivity (PSR sort gate)” value was “high polyreactivity”.

Take “QVQLVESGGGLVQAGGSLRLSCAASGRTFLYNAMGWYRQAHGKERELVAAIDQSGGSTYYADSVKGRFTISRDNAKNTVYLQMNSLKPEDTAVYYCAAYWEGSWYYKKYYYWGQGTQVTVSS”: the “polyreactivity (PSR sort gate)” value is “high polyreactivity”.

For the sequence “QVQLVESGGGLVQAGGSLRLSCAASGRTFLYNAMGWYRQAPGKERELVAAISFDDGSTYYADSVKGRFTISRDNAKNTVYLQMNSLKPEDTAVYYCAAEYLYVGDSQAYNQYEYWGQGTQVTVSS”, the “polyreactivity (PSR sort gate)” value is listed as “low polyreactivity”.

“QVQLVESGGGLVQAGGSLRLSCAASGRTFLYNAMGWYRQAPGKERELVAAISWSGGSTYYADSVKGRFTISRDNAKNTVYLQMIILKPEDTAVYYCAATGRRSGFYYWGQGTQVTVSS”: the “polyreactivity (PSR sort gate)” value is “high polyreactivity”.

In the case of “QVQLVESGGGLVQAGGSLRLSCAASGRTFLYNAMGWYRQAPGKERELVAGITQSGSSTYYADSVKGRFTISRDNAKNTVYLQMNSLKPEDTAVYYCAKVLYRRGYKFDYWGQGTQVTVSS”, the “polyreactivity (PSR sort gate)” value is given as “low polyreactivity”.

In the case of “QVQLVESGGGLVQAGGSLRLSCAASGRTFLYYAMGWDRPAPGKERELVAAITRGGGSTYYADSVKGRFTISRDNAKNTVYLPMNSLKPEDTAVYYCAVEYRVDYYVEYDYWGQGTQVTVSS”, the “polyreactivity (PSR sort gate)” value is on record as “high polyreactivity”.

Regarding “QVQLVESGGGLVQAGGSLRLSCAASGRTFLYYAMGWYRQAPGKERELVAGITSGGSTNYADSVKGRFTISRDNAKNTVYLQMNSLKPEATAVYYCAVDQGYSRTADVNYDYWGQGTQVTVSS”, the “polyreactivity (PSR sort gate)” value is “low polyreactivity”.

Regarding “QVQLVESGGGLVQAGGSLRLSCAASGRTFNFNAMGWYRQAPGKERELVATITSRGGSTYADSVKGRFTISRDNAKNTVYLQMNSLKPEDTAVYYCNARTPYIRDYQYWRKYDYWGQGTQVTVSS”, the “polyreactivity (PSR sort gate)” value is reported as “high polyreactivity”.

Turning to “QVQLVESGGGLVQAGGSLRLSCAASGRTFNFYAMGWYRQAPGKERELVAAISRTGGITYYADSVKGRFTISRDNAKNTVYLQMNSLKPEDTAVYYCNAEYIYYYPTDPYTYYYWGQGTQVTVSS”, the “polyreactivity (PSR sort gate)” value was “low polyreactivity”.

Take “QVQLVESGGGLVQAGGSLRLSCAASGRTFNFYPMGWYRPAPGKERELVAAITVRGGSTYYSDSVKGRFTISRYNAKNTVYLQMNSLKPEDTAVYYCAADPYPYYGAYDYWGQGTQVTVSS”: the “polyreactivity (PSR sort gate)” value is reported as “high polyreactivity”.

Consider “QVQLVESGGGLVQAGGSLRLSCAASGRTFNFYTMGWYRQAPGKEREFVAGITSTGGSTDYADSVKGRFTISRDNAKNSVYLQMNSLKPEDTAVYYCNKVTSFVGEYDYWGQGTQVTVSS”, for which the “polyreactivity (PSR sort gate)” value is “high polyreactivity”.

“QVQLVESGGGLVQAGGSLRLSCAASGRTFNHYAMGWYRQAPGKERELVAGITISGGSTYYADSVKGRFTISRDHAKNTVDLQMNSLKPEATAVYYCNAVSDYYRQSKWTMDYWGQGTQVTVSS”: the “polyreactivity (PSR sort gate)” value was “low polyreactivity”.

In the case of “QVQLVESGGGLVQAGGSLRLSCAASGRTFNKYAMGWYRKAPGKERELVAAINYSGGRTYYADSVKGRFTISRDNAKNTVSLQMNSLKPEDTAVYYCNRDDAWQEYDYWGQGTQVTVSS”, the “polyreactivity (PSR sort gate)” value is “low polyreactivity”.

Take “QVQLVESGGGLVQAGGSLRLSCAASGRTFNNYAMGWYRQAPGKERELVASIRKNGGSTYYADSVKGRFTISRDNAKNTVYLQMNSLKPEDTAVYYCGARYWGISRIFPSKYDYWGQGTQVTVSS”: the “polyreactivity (PSR sort gate)” value is “high polyreactivity”.

For the sequence “QVQLVESGGGLVQAGGSLRLSCAASGRTFNPYAMGWYRQAPGKERELVAVISSIGGSTYADSVKGRFTISRDNAKNTVYLQMNSLKPEDTAVYYCNRATFGQWGGDYWGQGTQVTVSS”, the “polyreactivity (PSR sort gate)” value is recorded as “high polyreactivity”.

With “QVQLVESGGGLVQAGGSLRLSCAASGRTFNRNAMGWYRQAPGKARELVAAISRGGGGTFFADSVKWRFTISRDNAKNTVYLQMNSLKPEDTAFYFCAAVPIAADKANGYDYWGQGTQVTVSS”, the “polyreactivity (PSR sort gate)” value was “low polyreactivity”.

Regarding “QVQLVESGGGLVQAGGSLRLSCAASGRTFNRYAMGWYRQAPGKERELVAAITRGGSTYYADSVKGRFTISRDNAQNTVYLQMNSLKPEDTAVYYCAKYVYSEGYYWGQGTQVTVSS”, the “polyreactivity (PSR sort gate)” value is reported as “high polyreactivity”.

Regarding “QVQLVESGGGLVQAGGSLRLSCAASGRTFNRYAMGWYRQAPGKERELVAVITGSGGAGTYYADSVKGRFTISRDNAKNTVYLQMNSLKPEDTAVYYCNAGGGFYGSTVEHDYWGQGTQVTVSS”, the “polyreactivity (PSR sort gate)” value was “low polyreactivity”.

For the sequence “QVQLVESGGGLVQAGGSLRLSCAASGRTFNTYAMGWYRQAPGKERELVAAISRTGASTYYADSVKGRFTISRDNAKNTVYLQMNSLKPEDTAVYYCAADANSGDGYYWGQGTQVTVSS”, the “polyreactivity (PSR sort gate)” value is recorded as “high polyreactivity”.
